Molecular target: T1, PLS linked to a C-terminal GFP (p35S::PLS:GFP) (Arabidopsis thaliana, UniProt Q8LLV8 1-36)
T1 construct: POLARIS (PLS) peptide, Arabidopsis thaliana, 36 amino acids; 'the 105-nucleotide PLS gene (without the stop codon)' in pEarlyGate103; source: Nicotiana benthamiana leaves, Agrobacterium infiltration, transient expression, in protein extract; not shown: GFP, C-terminal, kept
Test: co-IP; PLS:GFP and ETR1:HA co-expressed in N. benthamiana leaves, 3 d; anti-GFP beads or anti-HA beads, western blot; extract with 0.5 μM copper sulphate or 2 mM EDTA
Details: partners not purified

T1 sequence (Q8LLV8 whole entry): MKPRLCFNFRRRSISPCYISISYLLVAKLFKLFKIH

- fold more co-precipitated with copper ions than with 2 mM EDTA: ~3 fold
B1: ETR1 with a C-terminal HA tag (p35S::ETR1:HA) (receptor, Arabidopsis, UniProt P49333 1-738, looked up)
chain: MEVCNCIEPQWPADELLMKYQYISDFFIAIAYFSIPLELIYFVKKSAVFPYRWVLVQFGAFIVLCGATHLINLWTFTTHSRTVALVMTTAKVLTAVVSCATALMLVHIIPDLLSVKTRELFLKNKAAELDREMGLIRTQEETGRHVRMLTHEIRSTLDRHTILKTTLVELGRTLALEECALWMPTRTGLELQLSYTLRHQHPVEYTVPIQLPVINQVFGTSRAVKISPNSPVARLRPVSGKYMLGEVVAVRVPLLHLSNFQINDWPELSTKRYALMVLMLPSDSARQWHVHELELVEVVADQVAVALSHAAILEESMRARDLLMEQNVALDLARREAETAIRARNDFLAVMNHEMRTPMHAIIALSSLLQETELTPEQRLMVETILKSSNLLATLMNDVLDLSRLEDGSLQLELGTFNLHTLFREVLNLIKPIAVVKKLPITLNLAPDLPEFVVGDEKRLMQIILNIVGNAVKFSKQGSISVTALVTKSDTRAADFFVVPTGSHFYLRVKVKDSGAGINPQDIPKIFTKFAQTQSLATRSSGGSGLGLAISKRFVNLMEGNIWIESDGLGKGCTAIFDVKLGISERSNESKQSGIPKVPAIPRHSNFTGLKVLVMDENGVSRMVTKGLLVHLGCEVTTVSSNEECLRVVSHEHKVVFMDVCMPGVENYQIALRIHEKFTKQRHQRPLLVALSGNTDKSTKEKCMSFGLDGVLLKPVSLDNIRDVLSDLLEPRVLYEGM
notes: 'the ETR1 cDNA' in pEarlyGate301; source: Nicotiana benthamiana leaves, Agrobacterium infiltration, transient expression, in protein extract; not shown: HA, C-terminal, kept

Source: paper doi:10.1101/2023.06.15.545071, “POLARIS is a copper-binding peptide required for ethylene signalling control in Arabidopsis” (bioRxiv, 2023)
